Results reported in paper PMC6104945, “Structures of NHBA elucidate a broadly conserved epitope identified by a vaccine induced antibody” (PLoS ONE, 2018).

Target: T1, FL NHBA variant p3 (strain MC58) (Neisseria meningitidis MC58, UniProt Q7DD37, strain)
T1 construct: also called NHBAp3 (MC58); source: recombinant, purified protein antigen
Assay: SPR; single-cycle kinetics, Biacore T200, 25°C; Fab 5H2 (~800-1100 RU) captured by anti-human Fab antibodies on CM5; NHBA antigen injected at 3.125-50 nM, 30 uL/min; HBS-EP pH 7.4; 1:1 Langmuir model with mass transfer term; triplicate
Details: both partners purified

B1: Fab 5H2 (Fab derived from the vaccine-elicited human monoclonal antibody 5H2) (Fab, V domains shown)
VH: QVQLQESGPGLVKPSETLSLTCTVSGGSVSSGSSYWTWIRQTPGKGLEWIGYTSYSGSTKYNPSLKSRVTLSVDMSKNQFSLKLKSVTAADTAVYFCARDRFDVASGSSFDFWGQGTLVTVSS
VL: EIVMTQTPSSLSASVGDRVTITCRASQSISNYLNWYQQKPGTAPKLLTYAASSLGSGVPSRFSGSGSGTDLTLTISSLRPEDFATYYCQQSYGSPTFGQGTKLEIR
notes: they are in the structures deposited here: PDB 5NYX chains H, M, O and PDB 5O1R chains H, I (residues Q1-C226 modelled); they are in the structures deposited here: PDB 5NYX chains L, N, P and PDB 5O1R chains L, M (residues E1-E212 modelled); Recombinant Fab; variable region genes synthesised; also called huFab 5H2; source: Expi293 cells, transient transfection, purified from supernatant …
Question: How did the Kd turn out when B1 was run?
Answer: 400 pM
